Data published in patent US5686073.

Legend:
[1] = target: 50 kDa dystrophin-associated glycoprotein (rabbit); assay: co-immunoprecipitation with the 50 kDa glycoprotein on IVD31-Sepharose from untreated complex
dystrophin (rabbit) [2] = assay: co-immunoprecipitation with dystrophin on XIXC2-Sepharose from untreated complex
[3] = target: 50 kDa dystrophin-associated glycoprotein (rabbit); assay: co-immunoprecipitation with the 50 kDa glycoprotein on IVD31-Sepharose from alkaline-treated complex
dystrophin (rabbit) [4] = assay: co-immunoprecipitation with dystrophin on XIXC2-Sepharose from alkaline-treated complex

| Molecule | percent immunoprecipitated [1] [%] | percent immunoprecipitated (dystrophin (rabbit) [2]) [%] | percent immunoprecipitated [3] [%] | percent immunoprecipitated (dystrophin (rabbit) [4]) [%] |
| --- | --- | --- | --- | --- |
| 156 kDa dystrophin-associated glycoprotein (from UniProt Q28685) | 85 | 63 |  |  |
| 35 kDa dystrophin-associated glycoprotein | 96 | 96 | 96 |  |
| 59 kDa dystrophin-associated protein | 96 | 96 |  | 51 |
| 50 kDa dystrophin-associated glycoprotein (protein) GPGGTEAQQTTLYPLVGRVFVHTLEPASFLHLPEHAAPATIPVTYHAHLQGHPDLPRWLRYTQRSPHHPGFLYGAATPEDRGRQVIEVTAYNRDSFDTAGQSLVLLIRDPEGSPLPYQTEFLVRSHDVEEVLPPTPASHFLTALAGLWEPGELKLLNITSALDRGGRVPLPIGGQKEGVYIKVGSASPFSTCLKMVASPDSHARCARGQPPLLSCYDTLAPHFRVDWCNVSLVDTSVPEPVDEVPTPGDGILEHDPFFCPPTEATARDFLADALVTLLVPLLVALLLALLLAYIMCCRREGRLKRDLATSDIQMVHHCTIHENTEELRQMAASREVPRPLFPLPMFNVRTGERMPPRVDSAQVPLILDQH |  | 96 |  |  |

The next lines start with the values.

| percent immunoprecipitated [1] [%] | percent immunoprecipitated (dystrophin (rabbit) [2]) [%] | percent immunoprecipitated [3] [%] | percent immunoprecipitated (dystrophin (rabbit) [4]) [%] | Molecule |
| --- | --- | --- | --- | --- |
| 99 |  |  |  | dystrophin |
| 96 | 96 | 96 |  | 43 kDa dystrophin-associated glycoprotein (from UniProt Q28685) |
